Columns and labels:
Experiment in all cases: pull-down binding Z-score (relative to library population); higher = stronger binding
Details in all cases: RNA library: Library-2
[1] = test system: TO-3-N3-2 (biotin conjugate)
Outline: (§1)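 An RNA library (1 μg) carrying a Cy5 or Cy3 end label was heat-folded in phosphate/NaCl/KCl buffer, then incubated for 60 min at 25 °C with streptavidin beads loaded with 100 pmol of biotin-conjugated small molecule. The beads were washed three times, and bound RNA was released in hot SDS and hybridised to a DNA barcode microarray for 20 h at 55.5 °C. Each binding score was derived by subtracting the signal from beads without compound, averaging the barcoded replicate probes after removing the highest and lowest, and expressing the result as a Z-score relative to the library mean and standard deviation.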

[2] = test system: TO-N3-2 (biotin conjugate)
Outline: as §1

[3] = test system: TO-3-N3 (biotin conjugate)
Outline: as §1

TO-N3 (biotin conjugate) = test system: TO-N3 (biotin conjugate)
Outline: as §1

| Sequence | pull-down binding Z-score [1] | pull-down binding Z-score [2] | pull-down binding Z-score [3] | pull-down binding Z-score (TO-N3 (biotin conjugate)) |
| --- | --- | --- | --- | --- |
| AUUCUAUUCUAUUCUAUUCU [r(AUUCU)4] | -0.0109 | -0.629 | 1.33 | 1.03 |
| AGUGAUGGAACU [DMSMaPseq_invitro_SARS-CoV-2_Motif_229] | -0.117 | -0.572 | -0.565 | -0.658 |
| GCUAAAUUGUUACAUAAACCUAUUGUUUGGCAUGUUAACAAUGC [SHAPE_invitro_SARS-CoV-2_Motif_124] | -0.265 | -1.24 | -0.783 | -0.96 |
| GGGGUGAAGAGGAUACUUACCUG [U1snRNP5ss-12] | 0.365 | 0.523 | 0.145 | 0.427 |
| UGUGGUAAACAAGCUACA | -0.468 | -0.906 | -0.644 | -0.766 |
| AUAUAACUUCUAAAGAAACUUUGUAU | -0.347 | -1.1 | -0.911 | -1.28 |
| CAGGCAAGAAGGAUACUUACCUG [U1snRNP5ss-25] | -0.366 | -0.695 | -0.164 | -0.353 |
| GAGUGCUAUCUAACCUUAACUUGCCUGGUUGUGAUGGUGGCAGUUUGUAUGUAAAUAAACAUGCAUUCCACACACCAGCUUUUGAUAAAAGUGCUU [DMSMaPseq_invitro_SARS-CoV-2_Motif_343] | -0.487 | -0.238 | -0.749 | -0.637 |
| GCGCUGCCAGAAACUGGCCAGCGC [bulge-C] | -0.512 | -0.547 | -0.488 | -0.667 |
| GUGAUGAACUGAAGAUUAAUGCGGCUUGUAGAAAGGUUCAACACAUGGUUGUUAAAGCUGCAUUAUUAGCAGACAAAUUCCCAGUUCUUCAC | 0.69 | 0.059 | -0.0396 | 0.101 |
| CUGUUAAUGUAGCAUUUGAGCUUUGGGCUAAGCGCAACAUUAAACCAG | -0.268 | 0.335 | 0.0322 | 0.38 |
| AGUUCAAGAAAUUCAACU | -0.224 | -0.672 | -0.166 | -0.478 |
| CUCUUGAGUGCAUUAAAGACCUUCUAGCACGUGCUGGUAAAGCUUCAUGCACUUUGUCCGAACAACUGGACUUUAUUGACACUAAGAG [SHAPE_invitro_SARS-CoV-2_Multi_69_ComplexLevel_1] | -0.197 | 0.585 | -0.706 | -0.515 |
| UCAUACUGAAAGCGAACUUCAGUGUGA [IAV_invivo_NS1_NEP_8_Motif_9+IAV_invivo_NS1_NEP_8_Motif_9] | -0.294 | -1.16 | -0.0847 | -0.352 |
| CUGUUGAUUCAUCACAG | 0.174 | -0.421 | 1.37 | 1.14 |
| GGGGCGUUUAUGCAACCC [IAV_invivo_PB1_2_Motif_33+IAV_invivo_PB1_2_Motif_33] | -0.277 | -0.334 | -0.754 | -0.497 |
| GAUGUAGAAUUGUUUGAAAAUAAAACAACAUU | -0.136 | -0.444 | -0.783 | -0.878 |
| GGUCCAGCAACAGCUCAAAUGGCC [IAV_invivo_PB1_2_Motif_29+IAV_invivo_PB1_2_Motif_29] | -0.356 | 0.392 | -0.414 | -0.26 |
| GGGGAUCUAUCAGAUUCUGGCGAUCUACUCAACUGUCGCCAGUUCACUGGUGCUUUUGGUCUCC [IAV_invivo_HA_4_Motif_19+IAV_invivo_HA_4_Motif_19] | 0.123 | 0.69 | 0.57 | 0.629 |
| GGAUUGUACAGAAAGUGUGUUAAAUCC [SHAPE_invivo_SARS-CoV-2_Motif_47] | 0.139 | -0.185 | -0.22 | -0.222 |
| UUAAUUGAAUUGUGCGUGGAUGAGGCUGGUUCUAAAUCACCCAUUCAGUACAUCGAUAUCGGUAAUUAUACAGUUUCCUGUUUACCUUUUACAAUUAA [DMSMaPseq_invitro_SARS-CoV-2_Multi_84_ComplexLevel_1] | 0.0361 | -0.403 | -0.244 | -0.239 |
| AAGGUAAAACCAACAGUGGUUGUUAAUGCAGCCAAUGUUUACCUU [DMSMaPseq_invitro_SARS-CoV-2_Motif_60] | -0.217 | -0.952 | -0.572 | -0.792 |
| UGUGUACACACA [SHAPE_invivo_SARS-CoV-2_Motif_249] | -0.496 | -0.584 | 0.252 | 0.0581 |

| Sequence | pull-down binding Z-score [1] | pull-down binding Z-score [2] | pull-down binding Z-score [3] | pull-down binding Z-score (TO-N3 (biotin conjugate)) |
| --- | --- | --- | --- | --- |
| GCUUCAAGAGAGC | -0.171 | -0.212 | -0.0727 | -0.0808 |
| ACAGUAUGUCUUUUGUACUGU | -0.336 | -1.28 | -0.159 | -0.525 |
| GACCAGAAAUCAGCCCGAAUGGUU [IAV_invivo_PB1_2_Motif_17+IAV_invivo_PB1_2_Motif_17] | -0.175 | -0.162 | -0.477 | -0.464 |
| ACAUAGCAGUGGUGUUACCCGUGAACUCAUGCGUGAGCUUAACGGAGGGGCAUACACUCGCUAUGU | -0.167 | 0.0437 | -0.138 | -0.015 |
| CUUAGGGACAACCUUGAACCUGGG [IAV_invivo_PA_3_Motif_29+IAV_invivo_PA_3_Motif_29] | -0.446 | 0.0467 | -0.637 | -0.557 |
| GCUAGCUCUUGGAGGUUCCGUGGCUAUAAAGAUAACAGAACAUUCUUGGAAUGCUGAUCUUUAUAAGCUCAUGGGACACUUCGCAUGGUGGACAGC | 0.121 | 0.936 | 0.837 | 0.974 |
| AAACGAACUAAAUAUUAUAUUAGUUUUUCUGUUU | 0.491 | -0.324 | -0.375 | -0.211 |
| ACAACCCUUAAGGGUGU [SHAPE_invivo_SARS-CoV-2_Motif_115] | -0.665 | -1.1 | -0.802 | -1.19 |
| GGGAAGAACACC [IAV_invivo_M1_M2_7_Motif_3+IAV_invivo_M1_M2_7_Motif_3] | 5.36e-05 | -0.0552 | 1.13 | 0.899 |
| GCACUAUUGCCUUUGGAGGCUGUGUGU [SHAPE_invivo_SARS-CoV-2_Motif_29] | -0.236 | -0.0377 | 0.554 | 0.415 |
| UGUGUCAAUAUUUAAACACA | -0.00504 | -0.99 | 0.372 | 0.135 |
| CUUUGUAUUGCAUAGACGGUGCUUUACUUACAAAGUCCUCAGAAUACAAAG | -0.719 | -1.1 | -0.811 | -1.28 |
| CCAAGGAAAUUUUGG | -0.382 | -0.948 | -0.192 | -0.373 |
| CUCUCAUUUUGUUAACUUAGACAACCUGAGAG | -0.35 | -1.2 | -0.827 | -1.13 |
| ACAUUUUAUCUUACUAAUGAUGU [SHAPE_invivo_SARS-CoV-2_Motif_191] | -0.249 | -1.3 | -0.182 | -0.428 |
| CUUCUUGCAUGUGACUUAUGUCCCUGCACAAGAAAAG [SHAPE_invitro_SARS-CoV-2_Motif_449] | -0.257 | -0.177 | -0.329 | -0.309 |
| CGGCGGGCACGUAGUGUAGCUAGUCAAUCCAUCAUUGCCUACACUAUGUCACUUGGUG [SHAPE_invitro_SARS-CoV-2_Motif_429] | 0.313 | 1.07 | 0.745 | 1.13 |
| AUGAGUACGAACUUAUGUACUCAU | -0.43 | -1.18 | -0.0199 | -0.309 |
| AUGUACAUCUUCUUUGCAUCAUUUUAUUAUGUAUGGAAAAGUUAUGUGCAU | -0.603 | -1.44 | -1.16 | -1.36 |
| UAUAACAAUACUAGAUGGAAUUUCACAGUAUUCACUGAGACUCAUUGAUGCUAUGAUGUUCACAUCUGAUUUGGCUACUAACAAUCUAGUUGUA | -0.178 | -1.1 | -0.682 | -0.688 |
| GAUGUAAUUAUCUUGGCAAACCACGCGAACAAAUAGAUGGUUAUGUC [DMSMaPseq_invitro_SARS-CoV-2_Motif_374] | -0.326 | -0.828 | -0.928 | -1.03 |
| GCUCAGGAUGGUAAUGCUGCUAUCAGC | -0.00388 | 1.05 | -0.137 | 0.203 |
| GUCUGAUAAUGGACCCCAAAAUCAGCGAAAUGCACCCCGCAUUACGUUUGGUGGACCCUCAGAU | -0.237 | -0.0686 | -0.49 | -0.521 |

| Sequence | pull-down binding Z-score [1] | pull-down binding Z-score [2] | pull-down binding Z-score [3] | pull-down binding Z-score (TO-N3 (biotin conjugate)) |
| --- | --- | --- | --- | --- |
| UAGAGGUACAACAGUACUUUUA | -0.423 | -1.28 | -0.813 | -1.12 |
| UAUUUGCCUAUAGAUA | -0.192 | -0.821 | 0.0252 | -0.128 |
| UAAUGGUUUAACUUCUAUUA [DMSMaPseq_invitro_SARS-CoV-2_Motif_100] | -0.395 | -1.37 | -0.945 | -1.33 |
| GCUGGUAAUGUUCAACUCAGGGUUAUUGGACAUUCUAUGC [SHAPE_invivo_SARS-CoV-2_Motif_203] | -0.104 | -0.0925 | -0.362 | -0.313 |
| GUUAAUGCCUAUAUUAACCUUGACCAGGGCUUUAAC | -0.198 | -0.216 | 0.238 | -0.0902 |
| GAAUGCGUCAUCAUCUGAAGCAUUU | -0.405 | -0.61 | -0.994 | -1.1 |
| CUCCAGCACGGAG [IAV_invivo_PB2_1_Motif_21+IAV_invivo_PB2_1_Motif_21] | -0.425 | -1.17 | -0.457 | -0.877 |
| UCAUCAGGAGAUGCCACAACUGCUUAUGCUAAUAGUGUUUUUAACAUUUGUCAAGCUGUCACGGCCAAUGUUAAUGCACUUUUAUCUACUGAUGG [DMSMaPseq_invitro_SARS-CoV-2_Multi_45_ComplexLevel_1] | -0.46 | -0.306 | -0.641 | -0.561 |
| GUGGCUAAAUCUGAAUUUGACCGUGAUGCAGCCAU [DMSMaPseq_invitro_SARS-CoV-2_Motif_214] | -0.199 | -0.12 | -0.576 | -0.504 |
| CAAGAGAAGUGGGUUUUGUCGUGCCUGGUUUGCCUGGCACGAUAUUACGCACAACUAAUG | -0.209 | -0.297 | -0.455 | -0.438 |
| CCACAUUUUCACCGAGGCCACGCGGAGUACGAUCGAGUGUACAGUGAACAAUGCUAGG | 0.563 | 1.34 | -0.147 | 0.772 |
| GAUUAUGUGUACCUUCCUUACCCAGAUCCAUCAAGAAUCCUAGGGGCCGGCUGUUUUGUAGAUGAUAUCGUAAAAACAGAUGGUACACUUAUGAUU [SHAPE_invitro_SARS-CoV-2_Multi_44_ComplexLevel_1] | 0.262 | 0.0805 | 0.359 | 0.661 |
| GCGCCGCCAGAAACUGGCCGCGC [mismatch-CC] | -0.533 | -0.608 | -0.796 | -1.08 |
| UGACAUGACUCUUGAGGAAAUGUCA [IAV_invivo_NS1_NEP_8_Motif_7+IAV_invivo_NS1_NEP_8_Motif_7] | -0.773 | -1.21 | -0.475 | -0.87 |
| GCGCCGCCAGAAACUGGCUGCGC [mismatch-CU] | -0.0148 | -0.671 | 0.308 | 0.00381 |
| UCCUGUGGUAAUUUUAAAGUUACAAAAGGA | -0.424 | -0.669 | -0.823 | -0.795 |
| GUUAGUACAACUACUAAC [SHAPE_invivo_SARS-CoV-2_Motif_138] | -0.398 | -0.963 | -0.759 | -1.06 |
| GGAGGAGGAGGAGGAGGAGGAGGAGGAGGAGGAGGAGGAGGAGGAGGA [G4_r(GGA)16] | 8.95 | 3.35 | 7.15 | 5.89 |
| UGUUGUAACAACA | -0.596 | -1.35 | -0.671 | -0.992 |
| CUCGUCUAUCUUCUGCAGGCUGCUUACGGUUUCGUCCGUGUUGCAGCCGAUCAUCAGCACAUCUAGGUUUUGUCCGGGUGUGACCGAAAGGUAAGAUGGAGAG | -0.563 | -0.32 | -0.827 | -0.836 |
| AUUGUUACAUAAACCUAUUGUUUGGCAUGUUAACAAU | -0.197 | -0.663 | -0.915 | -0.895 |
